Test results published in paper PMC5201196.

Biological target: protein G´e (protein G prime e, extended)
Test: MST

IgG (antibody)
Kd: 9.4 nM
